Legend:
ZNF827 ZnF1-9 deleted = biological target: T1, ZNF827 ZnF1-9 deleted (Homo sapiens); assay: EMSA; interaction abolished; details: tags: HaloTag (pHTN), expressed in HEK 293T, tag removed by HaloTEV cleavage; label: 32P (gamma)
T1 chain: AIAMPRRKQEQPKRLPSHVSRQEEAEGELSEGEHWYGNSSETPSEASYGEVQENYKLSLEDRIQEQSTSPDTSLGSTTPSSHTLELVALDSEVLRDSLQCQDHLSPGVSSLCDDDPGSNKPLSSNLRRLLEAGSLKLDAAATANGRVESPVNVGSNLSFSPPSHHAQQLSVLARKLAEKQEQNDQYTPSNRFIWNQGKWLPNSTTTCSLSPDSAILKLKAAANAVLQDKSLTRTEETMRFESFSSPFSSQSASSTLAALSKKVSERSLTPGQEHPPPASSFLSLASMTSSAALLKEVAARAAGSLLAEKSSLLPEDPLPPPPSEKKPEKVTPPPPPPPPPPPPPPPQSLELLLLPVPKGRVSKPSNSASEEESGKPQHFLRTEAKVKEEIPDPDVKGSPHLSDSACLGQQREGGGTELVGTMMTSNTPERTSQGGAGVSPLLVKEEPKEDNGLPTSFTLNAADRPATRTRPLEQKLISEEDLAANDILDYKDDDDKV
Experimental: (§1) Purified proteins were quantified using a BCA assay using the Pierce™ BCA Protein Assay Kit according to the manufacturer's instructions. Equal amounts of purified proteins were incubated in binding buffer (20 mM HEPES-KOH, pH7.9, 100 mM KCl, 0.8 mM ZnCl₂, 0.2 mM EDTA, 5% glycerol, 0.5 mM DTT and 0.5 mM PMSF) with 6.25 μg/mL poly (dI:dC) and 50 ng/μL BSA on ice for 20 minutes. ˜0.12 nM (˜2.5 fmol) γ-³²P labelled DNA oligonucleotide (see Table 3) probes were added to samples and incubated on ice for another 30 minutes. Binding reactions were loaded onto an 8% native acrylamide/bisacrylamide (19:1, Biorad) gel pre-run at 100V in 0.5× TB buffer (89 mM Tris, 89 mM boric acid) for 20 minutes. Gels were electrophoresed at 150 V for 150 minutes at 4° C., dried at 65° C. for 45 minutes, and then exposed to a Phosphor screen overnight. Gel images were obtained by scanning the screens with a Typhoon FLA9500 Imager (GE Life Sciences).

ZNF827 ZnF1-3 deleted = biological target: T2, ZNF827 ZnF1-3 deleted (Homo sapiens, UniProt Q17R98 SEQ:4-997); assay: EMSA; interaction abolished; details: tags: HaloTag (pHTN), expressed in HEK 293T, tag removed by HaloTEV cleavage; label: 32P (gamma)
T2 chain: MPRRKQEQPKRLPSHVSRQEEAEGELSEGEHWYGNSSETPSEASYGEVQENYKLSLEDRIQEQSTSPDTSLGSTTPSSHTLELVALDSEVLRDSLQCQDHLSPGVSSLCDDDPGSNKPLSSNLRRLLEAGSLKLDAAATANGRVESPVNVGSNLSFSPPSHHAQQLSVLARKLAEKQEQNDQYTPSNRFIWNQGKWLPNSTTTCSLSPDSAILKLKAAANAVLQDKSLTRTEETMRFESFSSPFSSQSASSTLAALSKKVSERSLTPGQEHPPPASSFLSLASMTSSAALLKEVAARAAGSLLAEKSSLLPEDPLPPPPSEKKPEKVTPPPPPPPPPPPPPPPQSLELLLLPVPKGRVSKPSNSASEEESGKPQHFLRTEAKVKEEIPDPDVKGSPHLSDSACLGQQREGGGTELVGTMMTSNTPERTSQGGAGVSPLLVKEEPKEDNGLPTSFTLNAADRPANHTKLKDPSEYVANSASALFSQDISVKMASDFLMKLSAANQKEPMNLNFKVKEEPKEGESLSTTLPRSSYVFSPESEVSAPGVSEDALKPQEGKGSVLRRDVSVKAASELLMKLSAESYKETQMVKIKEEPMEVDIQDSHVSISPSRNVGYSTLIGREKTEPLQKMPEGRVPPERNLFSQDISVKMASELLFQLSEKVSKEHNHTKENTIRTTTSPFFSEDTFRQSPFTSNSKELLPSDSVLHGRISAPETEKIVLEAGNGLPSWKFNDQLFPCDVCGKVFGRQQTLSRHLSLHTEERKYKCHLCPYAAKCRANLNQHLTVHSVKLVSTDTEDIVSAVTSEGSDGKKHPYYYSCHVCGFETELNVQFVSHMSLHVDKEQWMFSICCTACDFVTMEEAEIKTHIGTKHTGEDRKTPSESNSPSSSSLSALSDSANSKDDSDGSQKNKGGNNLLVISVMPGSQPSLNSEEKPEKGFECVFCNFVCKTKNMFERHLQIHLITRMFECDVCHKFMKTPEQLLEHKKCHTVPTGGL
Experimental: as §1

**Q.** Does TTAGGGTTAGGGTTAGGG (ssDNA) [ss telomeric G rich oligo] bind (ZNF827 ZnF1-9 deleted)?
**A.** Result: no binding

**Q.** Does TTAGGGTTAGGGTTAGGG (ssDNA) [ss telomeric G rich oligo] bind (ZNF827 ZnF1-3 deleted)?
**A.** Result: no binding

Reference: US20220305003A1, “METHODS OF TREATING CANCER WITH AN INHIBITOR OF ZNF827” (CHILDREN'S MEDICAL RESEARCH INSTITUTE, priority 2019, published 2022)
